Experimental findings from patent publication US12091446 (NATIONAL TECHNOLOGY AND ENGINEERING SOLUTIONS OF SANDIA, dated 2024) are described below.

Where two headings read alike, the source gives them in different places.

In test [1] the target is T1, SARS-COV-2 spike, Wuhan (original) (SARS-COV-2, UniProt P0DTC2 14-1273). Put plainly: cell-based or functional assay.
Test [2] addresses T1, SARS-COV-2 spike, Wuhan (original). Put plainly: cell-based or functional assay. The source holds these as a separate data set.

B1: AP1D4 Nb-huFc (Fc fusion)
chain: EVQLQASGGGFVQPGGSLRLSCAASGHTFDAHRMGWFRQAPGKEREFVSAISSWGQSSTYYADSVKGRFTISRDNSKNTVYLQMNSLRAEDTATYYCAQTDEGNQYVYWGQGTQVTVSS
On to B1, for which the “EC50, neutralization of spike pseudotyped virus” value (shortened to “EC50, neutralization”) in test [1] is 6.62 nM.

B2: DP4F2 Nb-huFc (Fc fusion)
chain: EVQLQASGGGFVQPGGSLRLSCAASGTTYSERVMGWFRQAPGKEREFVSAISSGQSDQTYYYADSVKGRFTISRDNSKNTVYLQMNSLRAEDTATYYCAPFAGDANLPREWYWGQGTQVTVSSA
For B2, the “EC50, neutralization” value in test [2] was 65.8 nM.

B3: KP2C6 Nb-huFc (Fc fusion)
chain: EVQLQASGGGFVQPGGSLRLSCAASGRTFTSFHMGWFRQAPGKEREFVSAISSGDDGTQYYADSVKGRFTISRDNSKNTVYLQMNSLRAEDTATYYCAAYTTTTVPQYWGQGTQVTVSS
As to B3, the “EC50, neutralization” value in test [2] is 517 nM.

B4: AP1B6 Nb-huFc (Fc fusion)
chain: EVQLQASGGGFVQPGGSLRLSCAASGSAFQIYAMGWFRQAPGKEREFVSAISSTDSETDHYADSVKGRFTISRDNSKNTVYLQMNSLRAEDTATYYCAVNGFDYAHSKAGPQVYWGQGTQVTVSS
With B4, the “EC50, neutralization” value in test [1] came out at 3.32 nM.

B5: KP1B5 Nb-huFc (Fc fusion)
chain: EVQLQASGGGFVQPGGSLRLSCAASGFTFDWSAMGWFRQAPGKEREFVSAISSSTSESTTYADSVKGRFTISRDNSKNTVYLQMNSLRAEDTATYYCATYYGGKTVEQDFYWGQGTQVTVSS
B5: the “EC50, neutralization” value in test [2] came out at 896 nM.

B6: BP2A3 Nb-huFc (Fc fusion)
chain: EVQLQASGGGFVQPGGSLRLSCAASGRTFSAYSMGWFRQAPGKEREFVSAISAGDGAASYYADSVKGRFTISRDNSKNTVYLQMNSLRAEDTATYYCAHYYTTSATLDYAYWGQGTQVTVSS
Regarding B6, the “EC50, neutralization” value in test [2] came out at 58.5 nM.

B7: BP1B1 Nb-huFc (Fc fusion)
chain: EVQLQASGGGFVQPGGSLRLSCAASGRTFSGYIMGWFRQAPGKEREFVSAISQGDSYASYYADSVKGRFTISRDNSKNTVYLQMNSLRAEDTATYYCALYDINTVPYYWGQGTQVTVSS
In the case of B7, the “EC50, neutralization” value in test [2] was found to be 4.13 nM.

B8: BP2A6 Nb-huFc (Fc fusion)
chain: EVQLQASGGGFVQPGGSLRLSCAASGQTFSHYIMGWFRQAPGKEREFVSAISAGQGHATYYADSVKGRFTISRDNSKNTVYLQMNSLRAEDTATYYCAKYQDTIAPLYWGQGTQVTVSS
As for B8, the “EC50, neutralization” value in test [1] was 0.77 nM.

B9: AP1A5 Nb-huFc (Fc fusion)
chain: EVQLQASGGGFVQPGGSLRLSCAASGSTASHYTMGWFRQAPGKEREFVSAISSGRDHAKQYADSVKGRFTISRDNSKNTVYLQMNSLRAEDTATYYCAYEEINATQKDTLYWGQGTQVTVSS
As to B9, in test [1], the “EC50, neutralization” value turned out to be 11.9 nM.

B10: BP1A10 Nb-huFc (Fc fusion)
chain: EVQLQASGGGFVQPGGSLRLSCAASGQPSDRYIMGWFRQAPGKEREFVSAISQGAANKTAYADSVKGRFTISRDNSKNTVYLQMNSLRAEDTATYYCATHFNWQNYSYWGQGTQVTVSS
As to B10, in test [1], the “EC50, neutralization” value amounted to 8.38 nM.

B11: KP1C9 Nb-huFc (Fc fusion)
chain: EVQLQASGGGFVQPGGSLRLSCAASGRTFDAYSMGWFRQAPGKEREFVSAISSWSDDWTAYADSVKGRFTISRDNSKNTVYLQMNSLRAEDTATYYCALQNTKEDRLYWGQGTQVTVSS
Turning to B11, the “EC50, neutralization” value in test [2] is 2.89 nM.

B12: AP1C3 Nb-huFc (Fc fusion)
chain: EVQLQASGGGFVQPGGSLRLSCAASGRTYRGYSMGWFRQAPGKEREFVSAISSWSDDWTAYADSVKGRFTISRDNSKNTVYLQMNSLRAEDTATYYCAWQYIDEIQYYWGQGTQVTVSS
As to B12, the “EC50, neutralization” value in test [1] is 1.04 nM.
